The source of these data is PMC2745277.

The target in this series is T1, SurR (Pyrococcus furiosus, UniProt Q8U4J2 1-232).
T1 sequence: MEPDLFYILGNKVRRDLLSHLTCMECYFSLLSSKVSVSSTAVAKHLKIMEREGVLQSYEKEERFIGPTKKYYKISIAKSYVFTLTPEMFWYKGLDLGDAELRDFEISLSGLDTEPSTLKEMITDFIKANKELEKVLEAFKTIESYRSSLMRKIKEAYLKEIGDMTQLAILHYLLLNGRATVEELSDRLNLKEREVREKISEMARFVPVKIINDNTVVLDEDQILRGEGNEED
The series is described as follows: EMSA.

B1: SELEX-derived 40-bp probe GTTcacAAC (dsDNA)
DNA 1: GCTTCATCCGTGACGTTCACAACCAAATAGATTGAGGATC
DNA 2: GATCCTCAATCTATTTGGTTGTGAACGTCACGGATGAAGC
As to B1, the binding result is given as “binds”.
